The results in this text go back to the supplement of paper PMC9233669.

One data set deals with biotinyl-Phe-oxazolone. As to the kind of experiment: self-aminoacylation, catalytic enhancement (BFO) (fold over background); higher = more active; k-Seq, kA / k0A0; sequences stand for … in GGGAAUGGAUCCACAUCUACGAAUUC…UUCACUGCAGACUUGACGAAGCUG
In outline: (§1)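 Catalytic enhancement equals the median kA over the uncatalyzed rate, the latter read from the low-activity peak of a bimodal Gaussian fit. Values of kA came from fitting each sequence's fraction reacted to a pseudo-first-order model, with 1000 bootstraps. Reacted RNA was captured with streptavidin and quantified by triplicate qPCR and Illumina sequencing after 90 minutes at room temperature with 2–1250 μM biotinyl-aminoacyl-oxazolone and 0.43 μM mutagenized RNA pools bearing a 21-nt variable region.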

The test system of the next data set is biotinyl-Ile-oxazolone. Put plainly: self-aminoacylation, catalytic enhancement (BIO) (fold over background); higher = more active; k-Seq, kA / k0A0; sequences stand for … in GGGAAUGGAUCCACAUCUACGAAUUC…UUCACUGCAGACUUGACGAAGCUG
In outline:
as §1

The test system of the next data set is biotinyl-Met-oxazolone. Put plainly: self-aminoacylation, catalytic enhancement (BMO) (fold over background); higher = more active; k-Seq, kA / k0A0; sequences stand for … in GGGAAUGGAUCCACAUCUACGAAUUC…UUCACUGCAGACUUGACGAAGCUG
In outline:
as §1

For the next data set, the system named is biotinyl-Val-oxazolone. As to the kind of experiment: self-aminoacylation, catalytic enhancement (BVO) (fold over background); higher = more active; k-Seq, kA / k0A0; sequences stand for … in GGGAAUGGAUCCACAUCUACGAAUUC…UUCACUGCAGACUUGACGAAGCUG
The method, boiled down:
as §1

The test system of the next data set is biotinyl-Leu-oxazolone. As to the kind of experiment: self-aminoacylation, catalytic enhancement (BLO) (fold over background); higher = more active; k-Seq, kA / k0A0; sequences stand for … in GGGAAUGGAUCCACAUCUACGAAUUC…UUCACUGCAGACUUGACGAAGCUG
In outline: as §1

Another data set concerns biotinyl-Trp-oxazolone. As to the kind of experiment: self-aminoacylation, catalytic enhancement (BWO) (fold over background); higher = more active; k-Seq, kA / k0A0; sequences stand for … in GGGAAUGGAUCCACAUCUACGAAUUC…UUCACUGCAGACUUGACGAAGCUG
The method, boiled down: as §1

This sample holds only a part of the variants without activity.

As for “AUUACCAUGAUCAUCGAGUGA [Fam2.1 aminoacylation ribozyme variant]”, the self-aminoacylation in the data set on biotinyl-Phe-oxazolone amounted to 56.1; in the data set with biotinyl-Ile-oxazolone, 5.54; in the data set with biotinyl-Met-oxazolone, 11.1; in the data set with biotinyl-Val-oxazolone, 5.53; in the data set with biotinyl-Leu-oxazolone, 11.6; in the data set on biotinyl-Trp-oxazolone, 14.6.

With “AUUGCCCUGGUCUUCGAGUGA [Fam2.1 aminoacylation ribozyme variant]”, the self-aminoacylation with biotinyl-Phe-oxazolone was found to be 47.1; in the data set with biotinyl-Ile-oxazolone, 3.44; in the data set with biotinyl-Met-oxazolone, 6.57; with biotinyl-Val-oxazolone, 3.96; in the data set on biotinyl-Leu-oxazolone, 6.8; in the data set on biotinyl-Trp-oxazolone it was 8.03.

For the sequence “GUACUUCAAACAGUCGGUCUG [Fam1A.1 aminoacylation ribozyme variant]”, the self-aminoacylation is 1.14 with biotinyl-Phe-oxazolone; 1.32 in the data set with biotinyl-Ile-oxazolone; 1.41 with biotinyl-Met-oxazolone; 1.22 in the data set on biotinyl-Val-oxazolone; 1.3 in the data set with biotinyl-Leu-oxazolone; 1.5 with biotinyl-Trp-oxazolone.

On to “CUUCACAUAGGUCAUCGGGUG [Fam2.2 aminoacylation ribozyme variant]”, for which the self-aminoacylation came out at 33 in the data set with biotinyl-Phe-oxazolone; 3.77 in the data set with biotinyl-Ile-oxazolone; 5.24 with biotinyl-Met-oxazolone; 3.98 in the data set with biotinyl-Val-oxazolone; 6.86 in the data set with biotinyl-Leu-oxazolone; 5.58 with biotinyl-Trp-oxazolone.

Take “AUCCGCCUAGGUCAUCGGGUG [Fam2.2 aminoacylation ribozyme variant]”: the self-aminoacylation in the data set on biotinyl-Phe-oxazolone came to 120; in the data set on biotinyl-Ile-oxazolone, 10.3; in the data set on biotinyl-Met-oxazolone, 15.9; in the data set with biotinyl-Val-oxazolone it was 10.1; in the data set on biotinyl-Leu-oxazolone it was 18.5; in the data set on biotinyl-Trp-oxazolone, 16.4.

With “AAGUUUGCUAAUAGUCCUAAG [Fam3.1 aminoacylation ribozyme variant]”, the self-aminoacylation worked out at 14.5 in the data set with biotinyl-Phe-oxazolone; 1.21 with biotinyl-Ile-oxazolone; 1.31 with biotinyl-Met-oxazolone; 1.13 with biotinyl-Val-oxazolone; 1.05 with biotinyl-Leu-oxazolone; 4.71 with biotinyl-Trp-oxazolone.

On to “AAUACCCUGGUCAUCUAGUGA [Fam2.1 aminoacylation ribozyme variant]”, for which the self-aminoacylation in the data set on biotinyl-Phe-oxazolone was 28.3; with biotinyl-Ile-oxazolone it was 3.19; in the data set on biotinyl-Met-oxazolone, 6.98; in the data set on biotinyl-Val-oxazolone, 3.66; in the data set with biotinyl-Leu-oxazolone it was 7.36; in the data set with biotinyl-Trp-oxazolone, 8.94.

“AUUGCCCUGGUCAUGGAGUGA [Fam2.1 aminoacylation ribozyme variant]”: the self-aminoacylation with biotinyl-Phe-oxazolone amounted to 23.7; in the data set on biotinyl-Ile-oxazolone, 2.9; in the data set with biotinyl-Met-oxazolone it was 3.81; with biotinyl-Val-oxazolone, 2.58; with biotinyl-Leu-oxazolone it was 4.11; in the data set on biotinyl-Trp-oxazolone, 4.3.

Consider “GAGUGUGCUAAUAGUCGCAAG [Fam3.1 aminoacylation ribozyme variant]”, for which the self-aminoacylation with biotinyl-Phe-oxazolone turned out to be 9.21; in the data set with biotinyl-Ile-oxazolone, 1.77; with biotinyl-Met-oxazolone, 1.51; in the data set on biotinyl-Val-oxazolone, 1.57; in the data set with biotinyl-Leu-oxazolone, 1.36; with biotinyl-Trp-oxazolone, 3.11.

As for “AUAACCCUGGUCAUCAAGUGA [Fam2.1 aminoacylation ribozyme variant]”, the self-aminoacylation with biotinyl-Phe-oxazolone amounted to 2.73; in the data set on biotinyl-Ile-oxazolone it was 1.45; with biotinyl-Met-oxazolone, 2.3; with biotinyl-Val-oxazolone, 1.27; with biotinyl-Leu-oxazolone it was 2.24; with biotinyl-Trp-oxazolone it was 2.39.

On to “ACAACCCUGGUCAUCGAGUGA [Fam2.1 aminoacylation ribozyme variant]”, for which the self-aminoacylation amounted to 17.4 in the data set with biotinyl-Phe-oxazolone; 6.16 with biotinyl-Ile-oxazolone; 11.4 with biotinyl-Met-oxazolone; 5.2 in the data set on biotinyl-Val-oxazolone; 12.2 in the data set with biotinyl-Leu-oxazolone; 12.5 with biotinyl-Trp-oxazolone.

As for “AUUACCCUGGGCAUCGAGCGA [Fam2.1 aminoacylation ribozyme variant]”, the self-aminoacylation is 7.68 with biotinyl-Phe-oxazolone; 1.26 in the data set with biotinyl-Ile-oxazolone; 1.08 in the data set on biotinyl-Met-oxazolone; 1.48 in the data set on biotinyl-Val-oxazolone; 0.813 in the data set on biotinyl-Leu-oxazolone; 1.43 in the data set on biotinyl-Trp-oxazolone.

Consider “AUUCACCUAGAUCAUCGAGUG [Fam2.2 aminoacylation ribozyme variant]”, for which the self-aminoacylation was 1.68 with biotinyl-Phe-oxazolone; 1.14 with biotinyl-Ile-oxazolone; 1.33 with biotinyl-Met-oxazolone; 1.32 in the data set with biotinyl-Val-oxazolone; 1.64 in the data set with biotinyl-Leu-oxazolone; 0.729 in the data set with biotinyl-Trp-oxazolone.

With “AUUCACCUAGUUCAUCGGAUG [Fam2.2 aminoacylation ribozyme variant]”, the self-aminoacylation with biotinyl-Phe-oxazolone is 0.611; in the data set with biotinyl-Ile-oxazolone, 0.963; in the data set on biotinyl-Met-oxazolone, 1.03; in the data set on biotinyl-Val-oxazolone it was 0.951; in the data set on biotinyl-Leu-oxazolone, 0.819; with biotinyl-Trp-oxazolone it was 0.827.

Take “AUUAACCUAGGUCUUCGGGUG [Fam2.2 aminoacylation ribozyme variant]”: the self-aminoacylation was 17.9 in the data set on biotinyl-Phe-oxazolone; 2.64 with biotinyl-Ile-oxazolone; 2.98 in the data set on biotinyl-Met-oxazolone; 2.73 in the data set with biotinyl-Val-oxazolone; 3.58 with biotinyl-Leu-oxazolone; 2.95 in the data set on biotinyl-Trp-oxazolone.

For the sequence “AGUACCCUGGUCAUCGAGAGA [Fam2.1 aminoacylation ribozyme variant]”, the self-aminoacylation in the data set with biotinyl-Phe-oxazolone stood at 1.36; in the data set with biotinyl-Ile-oxazolone it was 0.994; with biotinyl-Met-oxazolone, 0.888; in the data set on biotinyl-Val-oxazolone, 0.901; in the data set on biotinyl-Leu-oxazolone it was 1.14; in the data set with biotinyl-Trp-oxazolone, 0.788.

Consider “AUUGACCUAGGUCAUCGGCUG [Fam2.2 aminoacylation ribozyme variant]”, for which the self-aminoacylation in the data set with biotinyl-Phe-oxazolone came to 1.19; in the data set with biotinyl-Ile-oxazolone it was 1.6; with biotinyl-Met-oxazolone, 1.58; with biotinyl-Val-oxazolone, 1.7; in the data set on biotinyl-Leu-oxazolone, 1.76; with biotinyl-Trp-oxazolone, 1.95.

As to “AUUACCCUGGGCAUCGAGUGC [Fam2.1 aminoacylation ribozyme variant]”, the self-aminoacylation in the data set with biotinyl-Phe-oxazolone stood at 0.527; in the data set with biotinyl-Ile-oxazolone, 1.1; in the data set on biotinyl-Met-oxazolone it was 1.24; in the data set with biotinyl-Val-oxazolone it was 0.979; in the data set on biotinyl-Leu-oxazolone, 0.992; in the data set with biotinyl-Trp-oxazolone, 1.31.

As for “CCACGCUUCAAUCAAUCGGUC [Fam1B.1 aminoacylation ribozyme variant]”, the self-aminoacylation was found to be 30.8 in the data set on biotinyl-Phe-oxazolone; 1.01 in the data set on biotinyl-Ile-oxazolone; 0.865 in the data set on biotinyl-Met-oxazolone; 1.18 with biotinyl-Val-oxazolone; 1.34 in the data set on biotinyl-Leu-oxazolone; 20 with biotinyl-Trp-oxazolone.

On to “CCACACCUCAAGCAAUCGGUG [Fam1B.1 aminoacylation ribozyme variant]”, for which the self-aminoacylation was found to be 32.5 in the data set with biotinyl-Phe-oxazolone; 3.55 with biotinyl-Ile-oxazolone; 5.05 with biotinyl-Met-oxazolone; 3.17 with biotinyl-Val-oxazolone; 7.12 with biotinyl-Leu-oxazolone; 5.99 in the data set with biotinyl-Trp-oxazolone.

As for “CCACACUACUAGCAAUCGGUC [Fam1B.1 aminoacylation ribozyme variant]”, the self-aminoacylation in the data set with biotinyl-Phe-oxazolone is 0.743; in the data set on biotinyl-Ile-oxazolone, 0.798; in the data set on biotinyl-Met-oxazolone, 0.694; with biotinyl-Val-oxazolone it was 0.753; in the data set with biotinyl-Leu-oxazolone, 0.71; with biotinyl-Trp-oxazolone, 0.623.

For the sequence “CCACACUUCAAGCAAUCGCUC [Fam1B.1 aminoacylation ribozyme variant]”, the self-aminoacylation in the data set on biotinyl-Phe-oxazolone stood at 1.2; with biotinyl-Ile-oxazolone, 1.33; in the data set with biotinyl-Met-oxazolone it was 1.3; in the data set on biotinyl-Val-oxazolone, 1.44; with biotinyl-Leu-oxazolone, 1.27; in the data set on biotinyl-Trp-oxazolone it was 1.29.

Consider “AUUCACUUAGGUCAUCCGGUG [Fam2.2 aminoacylation ribozyme variant]”, for which the self-aminoacylation in the data set on biotinyl-Phe-oxazolone was found to be 43.4; with biotinyl-Ile-oxazolone it was 4.64; in the data set with biotinyl-Met-oxazolone, 6.26; in the data set with biotinyl-Val-oxazolone it was 4.72; in the data set on biotinyl-Leu-oxazolone, 8.78; in the data set with biotinyl-Trp-oxazolone, 6.84.

For the sequence “AUUUCCCUGGUCAGCGAGUGA [Fam2.1 aminoacylation ribozyme variant]”, the self-aminoacylation with biotinyl-Phe-oxazolone is 37.4; with biotinyl-Ile-oxazolone it was 4.15; in the data set on biotinyl-Met-oxazolone it was 6.28; in the data set with biotinyl-Val-oxazolone, 3.85; with biotinyl-Leu-oxazolone, 6.54; in the data set on biotinyl-Trp-oxazolone it was 6.86.

On to “AUUCACCUAGUUAAUCGGGUG [Fam2.2 aminoacylation ribozyme variant]”, for which the self-aminoacylation in the data set with biotinyl-Phe-oxazolone stood at 20; in the data set on biotinyl-Ile-oxazolone, 2.01; in the data set with biotinyl-Met-oxazolone it was 3.08; in the data set with biotinyl-Val-oxazolone, 2.04; with biotinyl-Leu-oxazolone, 3.98; in the data set on biotinyl-Trp-oxazolone, 3.53.
